According to patent US20180298070A1, “PEPTIDE COMPOUND” (Takeda Pharmaceutical Company Limited, published 2018):

Biological target: human GLP-1R (human, UniProt P43220)
Test: cell-based or functional assay

Row | Binder | Agonist activity (EC50, M)
1 | YXEGTXISDYSIXLDRXAQXNFVNWXLAQRPSSGAPPPS (N-methyl on Tyr1 (Me-Tyr); Aib at 2, 13, 20; Iva at 6, 26; Lys(Oda-GGGGGG-) at 17; C-terminal NH2) [Compound 496] | > 1e-06 M
2 | YXEGTXISDYSIXLDRXHQXNFVNWXLAQRPSSGAPPPS (N-methyl on Tyr1 (Me-Tyr); Aib at 2, 13, 20; Iva at 6, 26; Lys(Heda-GGGGGG-) at 17; C-terminal NH2) [Compound 503] | > 1e-06 M
3 | YXEGTXISDYSIXLDRXHQXNFVNWXLAQRPSSGAPPPS (N-methyl on Tyr1 (Me-Tyr); Aib at 2, 13, 20; Iva at 6, 26; Lys(Oda-GGGGG-) at 17; C-terminal NH2) [Compound 491] | > 1e-06 M
4 | YXEGTXISDYSIXLDRXHQXNFVNWXLAQRPSSGAPPPS (N-methyl on Tyr1 (Me-Tyr); Aib at 2, 13, 20; Iva at 6, 26; Lys(Hepda-GGGGGG-) at 17; C-terminal NH2) [Compound 504] | > 1e-06 M
5 | YXEGTXISDYSIXXDRXAQXNFVNWXLAQRPSSGAPPPS (N-methyl on Tyr1 (Me-Tyr); Aib at 2, 13, 17, 20; Iva at 6, 26; Lys(Hepda-GGGGGG-) at 14; C-terminal NH2) [Compound 466] | > 1e-06 M
6 | YXEGTXISDYSIXXDRXHQXNFVNWXLAQRPSSGAPPPS (N-methyl on Tyr1 (Me-Tyr); Aib at 2, 13, 17, 20; Iva at 6, 26; Lys(Heda-GGGGG-) at 14; C-terminal NH2) [Compound 507] | > 1e-06 M
7 | YXEGTXISDYSIXXDRXAQXNFVNWXLAQRPSSGAPPPS (N-methyl on Tyr1 (Me-Tyr); Aib at 2, 13, 17, 20; Iva at 6, 26; Lys(Hepda-GGGGG-) at 14; C-terminal NH2) [Compound 465] | > 1e-06 M
8 | YXEGTXISDYSIXLDRXAQXNFVNWXLAQRPSSGAPPPS (N-methyl on Tyr1 (Me-Tyr); Aib at 2, 13, 20; Iva at 6, 26; Lys(Hepda-GGGGGG-) at 17; C-terminal NH2) [Compound 495] | > 1e-06 M
9 | YXEGTXISDYSIXLDRXHQXNFVNWXLAQRPSSGAPPPS (N-methyl on Tyr1 (Me-Tyr); Aib at 2, 13, 20; Iva at 6, 26; Lys(Eda-GGGGG-) at 17; C-terminal NH2) [Compound 493] | > 1e-06 M
10 | YXEGTXISDYSIXXDRXHQXNFVNWXLAQRPSSGAPPPS (N-methyl on Tyr1 (Me-Tyr); Aib at 2, 13, 17, 20; Iva at 6, 26; Lys(Eda-GGGGGG-) at 14; C-terminal NH2) [Compound 521] | > 1e-06 M
11 | YXEGTXISDYSIXLDRXHQXNFVNWXLAQRPSSGAPPPS (N-methyl on Tyr1 (Me-Tyr); Aib at 2, 13, 20; Iva at 6, 26; Lys(Oda-GGGGGG-) at 17; C-terminal NH2) [Compound 492] | > 1e-06 M
12 | YXEGTXISDYSIXLDRXAQXNFVNWXLAQRPSSGAPPPS (N-methyl on Tyr1 (Me-Tyr); Aib at 2, 13, 20; Iva at 6, 26; Lys(Heda-GGGGGG-) at 17; C-terminal NH2) [Compound 494] | > 1e-06 M
13 | YXEGTXISDYSIXXDRXAQXNFVNWXLAQRPSSGAPPPS (N-methyl on Tyr1 (Me-Tyr); Aib at 2, 13, 17, 20; Iva at 6, 26; Lys(Heda-GGGGGG-) at 14; C-terminal NH2) [Compound 457] | > 1e-06 M
14 | YXEGTXISDYSIXLDRXHQXNFVNWXLAQRPSSGAPPPS (N-methyl on Tyr1 (Me-Tyr); Aib at 2, 13, 20; Iva at 6, 26; Lys(Hepda-GGGGG-) at 17; C-terminal NH2) [Compound 502] | > 1e-06 M
15 | YXEGTXISDYSIXXDRXAQXNFVNWXLAQRPSSGAPPPS (N-methyl on Tyr1 (Me-Tyr); Aib at 2, 13, 17, 20; Iva at 6, 26; Lys(Hda-GGGGG-) at 14; C-terminal NH2) [Compound 459] | > 1e-06 M
16 | YXEGTXISDYSIXXDRXHQXNFVNWXLAQRPSSGAPPPS (N-methyl on Tyr1 (Me-Tyr); Aib at 2, 13, 17, 20; Iva at 6, 26; Lys(Hepda-GGGGGG-) at 14; C-terminal NH2) [Compound 510] | > 1e-06 M
17 | YXEGTXISDYSIXXDRXHQXNFVNWXLAQRPSSGAPPPS (N-methyl on Tyr1 (Me-Tyr); Aib at 2, 13, 17, 20; Iva at 6, 26; Lys(Eda-GGGGG-) at 14; C-terminal NH2) [Compound 475] | > 1e-06 M
18 | YXEGTXISDYSIXXDRXAQXNFVNWXLAQRPSSGAPPPS (not fully specified; N-methyl on Tyr1 (MeTyr); Aib at 2, 13, 17, 20; Iva at 6, 26; Lys(Oda-GGGGG-) at 14; C-terminal OH) [Compound 441] | > 1e-06 M
